Experimental data from the nanobody polyreactivity screen of Harvey et al. (2022).

Test: yeast display, Sf9 membrane polyspecificity reagent, FACS + sequencing; frameworks hold sequencing errors
Procedure, shortened: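 Nanobodies came from a synthetic yeast display library in Saccharomyces cerevisiae BJ5465, induced with galactose for 36–48 hours and stained for 1 hour at 4 °C with 10% biotinylated, detergent-solubilized Sf9 membrane reagent. Cells were enriched on streptavidin microbeads and then FACS-sorted, with low and high (top ~1%) gates set on anti-HA fluorescence for expression and streptavidin fluorescence for reagent binding. Each polyreactivity label reflects the gate a clone came from. Genes were amplified by colony PCR, sequenced by MiSeq 2 × 250 and filtered by CDR length.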

| Sequence | polyreactivity (PSR sort gate) |
| --- | --- |
| QVQLVESGGGLVQAGGSLRLSCAASGSIFVHYAMGWSRQAPGKERELVAAITTSGGSTYYADSVKGRFTISRDNAKNTVYLQMNSLKPEDTAVYYCNARAVRYPFTGNYWAQGTQVTVSS | high polyreactivity |
| QVQLVESGGGLVQAGGSLRLSCAASGSIFVINPMGWYRQAPGNERELVAAISDSGTGTYYADSVKGRFTISRDNAKNTVYLQMNSLKPEDTAVYYCAADYYYRYRIYDYWGQGTQVTASS | low polyreactivity |
| QVQLVESGGGLVQAGGSLRLSCAASGSIFVKYTMGWYRQAPGKERELVAAISFRGGSTYYADSVKGRFTISRDNAKNTVYLQINSLKPEDTAVYYCNADGGWWPEYYWGQGTQVTVSS | low polyreactivity |
| QVQLVESGGGLVQAGGSLRLSCAASGSIFVNNAMGWYRQAPGKERELVAAISSRGGSTYYADSVKGRFTISRDNAKNTVYLQMNSLKPEDTAVYYCAAEYDGPYYSFYPEQRYYWGQGTQVTVSS | low polyreactivity |
| QVQLVESGGGLVQAGGSLRLSCAASGSIFVNNAMGWYRQAPGKERELVAAISSRSSRTFYADSVKGRFTISRDNAKNTVYLQMNSLKPEDTAVYYCAKPGYLRPSRYDYWGQGTQVTVSS | high polyreactivity |
| QVQLVESGGGLVQAGGSLRLSCAASGSIFVPNAMGWYRQAPGKEREFVAAITRSGGRTYYADSVKGRFTISRDNAKNTVYLQMNSLKPEDTAVYYCAAPYGTYAYDYWGQGTQVTVSS | high polyreactivity |
| QVQLVESGGGLVQAGGSLRLSCAASGSIFVPYAMGWYRPAPGKERELVAAISWSGGSTYYADSVKGRFTISRDNAKNTVYLHMNSLKPEDTAVYYCAVRFRSYTSYYWIDYEYWGQGTQVTVSS | high polyreactivity |
| QVQLVESGGGLVQAGGSLRLSCAASGSIFVPYAMGWYRQAPGKERELVAAISRRGGRTNYADSVKGRFTISRDNAKNTVYLQMNSLKPEDTAVYYCAKYPIYYGLTRYGYWGHGTQVTVSS | high polyreactivity |
| QVQLVESGGGLVQAGGSLRLSCAASGSIFVPYAMGWYRQAPGKERELVAAISSRGGRTYYADSVKGRFTISRDNAKNTVYLQMNSLKPEDNAVYYCNKTAGSHIPRLEYWGQGTQVTVSS | low polyreactivity |
| QVQLVESGGGLVQAGGSLRLSCAASGSIFVPYAMGWYRQAPGKERELVAAITYSDGSTYYADSVKGRFTISRDNEKNTVYLQMNSLKPEDTAVYYCATYPQYYFRYDYWGQGTQVTVSS | high polyreactivity |
| QVQLVESGGGLVQAGGSLRLSCAASGSIFVPYTMGWYRQAPGKERELVAAINSSDDSTFYADSVKGRFTISRDNAKNTVYLKMYSLKPEDTAVYYCNATGYARWYTGDYWGQGTQVTVSS | low polyreactivity |
| QVQLVESGGGLVQAGGSLRLSCAASGSIFVQNAMGWYRQAPGKETELVAVINSGDSTNYADSVKGRFTISRDNAKNTVYLQMNSLKPEDTEVYYCAVDDVSYYYLRAYNYELSWYGSGLDYWGQGTQVTVSS | low polyreactivity |
| QVQLVESGGGLVQAGGSLRLSCAASGSIFVQYAMGWYRQAPGKERELVAGITISGGRTYYADSVKGRFTISRDNAKNTVYLLMNSLKPEDTAVYYSNADVTRASSRYNSWGHGTQVTVSS | low polyreactivity |
| QVQLVESGGGLVQAGGSLRLSCAASGSIFVQYAMGWYRQAPGKERELVAGITISGGRTYYADSVKGRFTISRDNAKNTVYLQMNSLKPEDTAVYYSNADVTRASSRYNSWGQGTQVTVSS | low polyreactivity |
| QVQLVESGGGLVQAGGSLRLSCAASGSIFVQYAMGWYRQAPGNERELVAAISNRGGSTYYADSVKGRFTISRDNAKNTVYLQMNSLKPEDTAVYYCAARKYWGYGTRYYYWGQGTQVTVSS | high polyreactivity |
| QVQLVESGGGLVQAGGSLRLSCAASGSIFVRYAMGWYRQAPGKEREFVAARTGNTDYADSVKGRFTISRDNAKNTVYLQMNSLKPEDTAVYYCARRPRSGTVSTPYYSLDYWGQGTQVTVSS | low polyreactivity |
| QVQLVESGGGLVQAGGSLRLSCAASGSIFVSNAMGWYRQAPGKERELVAAITARDVSTYYADSVKGRFTISRDNAKNTVYLQMNSLKPEDTAVYYCAGNSSTYPSDDSYDYWGQGTQVTVSS | low polyreactivity |
| QVQLVESGGGLVQAGGSLRLSCAASGSIFVSYAMGWYRQAPGKERELVAAITWSGGSTYYADSVKGRFTISRDNAKNTVYLQMKSLKPEDTAVYYCAADEPYPTAYEYWGQGTQVTVSS | low polyreactivity |
| QVQLVESGGGLVQAGGSLRLSCAASGSIFVTNAMGWYRPAPGKERELVAAIRWSGDSTYYADSVKGRFTISRDNAKNTVFLQMNSLKPEDTAVYYCAAESFRYIRLNYKYGDYYWGQGTQVTVSS | high polyreactivity |
| QVQLVESGGGLVQAGGSLRLSCAASGSIFVTNAMGWYRQEPGKERELVAAISVSGGSTFYADSVKGRFTISRDNAKNTVYLQMNSLKPEDTAVYYCNTVRSPPGHDYWGQGTQVTVSS | low polyreactivity |
| QVQLVESGGGLVQAGGSLRLSCAASGSIFVTNGMGWYRQAPGKERELVAVISWGGGNTYYADSVKGRFTISRDNAKNTVYLQMNSLKPEDTAVYYCAVDIWGGEGYDSWGQGTQVTVSS | low polyreactivity |
| QVQLVESGGGLVQAGGSLRLSCAASGSIFVTNTMGWYRQAPGKERELVAAITYSGGSTYYADSVKGRFTISRDNAKNNVYLQMNSLKPEDTAVYYCAARRARYHVEYYYWGQGTQVTVSS | high polyreactivity |

| Sequence | polyreactivity (PSR sort gate) |
| --- | --- |
| QVQLVESGGGLVQAGGSLRLSCAASGSIFVTYAMGWYRQAPGKERELVARITSGGSTYYADSVKGRFTISRDNAKNTVYLQMNRQKPEDTAVYYCAARRWLRYDLDYWGQGTQVTVSS | low polyreactivity |
| QVQLVESGGGLVQAGGSLRLSCAASGSIFVVNAMGWYRPAPGKERELVAAISDSGDRTYYADSVKGRFTISRDNAKNTVYLLMNSLKPEDTAVYYCNTRYSPGYQGTEVDYWGQGTQVTVSS | low polyreactivity |
| QVQLVESGGGLVQAGGSLRLSCAASGSIFVVNAMGWYRQAPGKERELVAAISDSGDRTYYADSVKGRFTISRDNAKNTVYLQMNSLKPEDTAVYYCAADSIQTTAIYDYWGQGTQVTVSS | low polyreactivity |
| QVQLVESGGGLVQAGGSLRLSCAASGSIFVVNARGWYRQAPGKERELVAAITKNGGRTYYADSVKGRFTISRDNAKNTVYLQMNSLKPEDTAVYYCNTVKGHGGYYGYDYWGQGTQVSVSS | high polyreactivity |
| QVQLVESGGGLVQAGGSLRLSCAASGSIFVWNDMGWYRQAPGKERELVASIRSGVSTYYADSVKGRFTISRDNAKNTVYLQMNSLKPEDTAVYYCAKKGPIHYIYDSWGQGTQVTVSS | low polyreactivity |
| QVQLVESGGGLVQAGGSLRLSCAASGSIFVYNAKGWYRQAPGKERELVAAISSSGSSTYYADSVKGRFTISRDNAKNTFYLQMNSLKPEDTAVYYCAADPARYGYWNSYDYWGQGTQVTVSS | high polyreactivity |
| QVQLVESGGGLVQAGGSLRLSCAASGSIFVYNAMGWYRQAPGKEREFVAGITFIGGSTYYADSVKGRFTISRDNAKNTVYLKMNSLKPEDTAVYYCNADVAPGIFYGYDSWGQGSQVTVSS | low polyreactivity |
| QVQLVESGGGLVQAGGSLRLSCAASGSIFVYNAMGWYRQAPGKERELVAAIDTVGSTNYADSVKGRFTISRDNAKNTVYLQMNSLKPEDTAVYYCAVVTPYWSFYEQVIPSNYWGQGTQVTVSS | low polyreactivity |
| QVQLVESGGGLVQAGGSLRLSCAASGSIFVYNDMGWYRQAPGKERELVAGIDWSGDRTYADSVKGRFTISRDNAKNTVYLQLNSLKPEDTAVYYCNADDWRWDEIIPYAVDYWGQGTQVTVSS | low polyreactivity |
| QVQLVESGGGLVQAGGSLRLSCAASGSIFVYNDMGWYRQAPGKERELVAGIDWSGDRTYADSVKGRFTISRDNAKNTVYLQMNSLKPEDTAVYYCNADEWRWDEIIPYAVDYWGQGTQVTVSS | low polyreactivity |
| QVQLVESGGGLVQAGGSLRLSCAASGSIFVYYAMGWYRQAPGKERELVASISRGGTSTYYADSVKGRFTISRDNAKNTVYLQMNSLKPEDTAVYYCAAQPYRTGTYDYWGQGTQVTVSS | low polyreactivity |
| QVQLVESGGGLVQAGGSLRLSCAASGSIFVYYAMGWYRQAPGNERELVAAINNGGSTTYADSVKGRFTISRDNAKNTVYLQMNSLKPEDTAVYYCAADLEPRTNAPGLPTPDGYYWGQGTQVTVSS | low polyreactivity |
| QVQLVESGGGLVQAGGSLRLSCAASGSIFVYYDMGWYRQAPGKERELVAAISTTCGRTYYADSVKGRFTISRDNAKNTVYLQMNSLKPEATAVYYCAARYTIPYKRYDYWGQGPQVTVSS | high polyreactivity |
| QVQLVESGGGLVQAGGSLRLSCAASGSIFWDYAMGWYRQAPGKERELVAAISGSGTSTYYADSVKGRFTISRDNAKNTVYLQMNSLKPEDTAVYYCAARIWTGRGRKLGNGYDYWGQGTQVTVSS | low polyreactivity |
| QVQLVESGGGLVQAGGSLRLSCAASGSIFWDYAMGWYRQAPGKERELVAAISSNGGNTYYADSVKGRFTISRDNAKNTVYLQMNSLKPEDTAVYYCAARAKRRHGYWGQGTQVTVSS | high polyreactivity |
| QVQLVESGGGLVQAGGSLRLSCAASGSIFWGYAMGWYRQAPGKERELVATITYGGDSTYYADSVKGRFTISRDNAKNTVYLQMNSLKPEDTAVYYCNVGVEPYDYDYWGQGTQVTVSS | low polyreactivity |
| QVQLVESGGGLVQAGGSLRLSCAASGSIFWGYDMGWYRQAPGKERELVARISYSGGSTSYADSVKGRFTISRDNAKNTVYLQMNSLKPEDTAVYYCAADEGGFWWTYPYDSWGQGTQVTVSS | low polyreactivity |
| QVQLVESGGGLVQAGGSLRLSCAASGSIFWLYAMGWYRQAPGKEREFVAAITTSGSSTRYADSVKGRFTISRDNAKNTVYLQMNSLKPEDTAVYYCAARNRTFFQPTYYYWGQGTQVTVSS | high polyreactivity |
| QVQLVESGGGLVQAGGSLRLSCAASGSIFWNYAMGWYRQAPGKEREFVASISRSGGSTYYADSVKGRFTISRDNAKNTVYLQMNSLKPEDTAVYYCAARGVKISYNYWGQGTQVTVSS | high polyreactivity |
| QVQLVESGGGLVQAGGSLRLSCAASGSIFWPNAMGWYRQAPGKERELVAAISWGTGSTYYADSVKGRFTISRDNAKNTVYLQMNSLKPEDTAVYYCAADGAYLDPYYDYWGQGTQVTVSS | low polyreactivity |
| QVQLVESGGGLVQAGGSLRLSCAASGSIFWPNTMGWYRQAPGKERELVAGISFGGGSTYYADSVKGRFTISRDNAKNTVYLQMNSLKPEDTEVYYCNAPGPVISRRTDSYWYGWYDYWGQGTQVTVSS | low polyreactivity |
